In paper PMC3488246:

Key:
PALB2 = target: T1, PALB2 (UniProt Q86YC2 1-1186); experiment: EMSA
T1 sequence: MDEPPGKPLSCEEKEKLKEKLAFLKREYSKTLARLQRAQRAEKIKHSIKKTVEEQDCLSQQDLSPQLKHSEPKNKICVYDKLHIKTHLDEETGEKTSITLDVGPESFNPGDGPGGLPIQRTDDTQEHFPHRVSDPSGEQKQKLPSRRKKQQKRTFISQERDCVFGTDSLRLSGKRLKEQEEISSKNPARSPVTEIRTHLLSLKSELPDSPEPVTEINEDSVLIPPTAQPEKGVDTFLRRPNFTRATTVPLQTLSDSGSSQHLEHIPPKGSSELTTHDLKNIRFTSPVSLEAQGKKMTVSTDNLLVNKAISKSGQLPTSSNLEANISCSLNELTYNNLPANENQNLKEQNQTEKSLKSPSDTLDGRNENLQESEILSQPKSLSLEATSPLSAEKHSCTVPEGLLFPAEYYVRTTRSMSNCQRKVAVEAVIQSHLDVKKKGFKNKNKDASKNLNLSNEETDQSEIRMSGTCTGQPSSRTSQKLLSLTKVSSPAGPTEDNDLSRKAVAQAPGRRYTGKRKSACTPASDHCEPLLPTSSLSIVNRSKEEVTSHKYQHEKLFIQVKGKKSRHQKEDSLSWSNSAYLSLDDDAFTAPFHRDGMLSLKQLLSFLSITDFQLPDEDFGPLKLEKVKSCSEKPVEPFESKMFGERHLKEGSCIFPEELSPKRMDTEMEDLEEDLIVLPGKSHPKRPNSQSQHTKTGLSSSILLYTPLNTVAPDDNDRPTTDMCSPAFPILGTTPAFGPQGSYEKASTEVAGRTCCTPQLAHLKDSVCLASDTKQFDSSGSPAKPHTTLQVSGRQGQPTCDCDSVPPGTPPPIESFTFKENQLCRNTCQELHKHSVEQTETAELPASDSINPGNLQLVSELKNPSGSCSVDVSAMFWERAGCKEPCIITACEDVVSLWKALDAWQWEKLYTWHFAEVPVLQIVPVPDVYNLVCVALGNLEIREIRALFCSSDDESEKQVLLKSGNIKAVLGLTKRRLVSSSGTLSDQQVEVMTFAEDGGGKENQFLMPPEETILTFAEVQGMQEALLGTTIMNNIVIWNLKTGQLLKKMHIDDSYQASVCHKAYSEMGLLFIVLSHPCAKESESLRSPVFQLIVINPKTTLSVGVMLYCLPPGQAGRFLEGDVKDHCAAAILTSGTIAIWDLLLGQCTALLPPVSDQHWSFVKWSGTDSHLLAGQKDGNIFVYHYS

PALB2Δ1-40 = target: T2, PALB2Δ1-40 (UniProt Q86YC2 41-1186, del1-40); experiment: EMSA
T2 sequence: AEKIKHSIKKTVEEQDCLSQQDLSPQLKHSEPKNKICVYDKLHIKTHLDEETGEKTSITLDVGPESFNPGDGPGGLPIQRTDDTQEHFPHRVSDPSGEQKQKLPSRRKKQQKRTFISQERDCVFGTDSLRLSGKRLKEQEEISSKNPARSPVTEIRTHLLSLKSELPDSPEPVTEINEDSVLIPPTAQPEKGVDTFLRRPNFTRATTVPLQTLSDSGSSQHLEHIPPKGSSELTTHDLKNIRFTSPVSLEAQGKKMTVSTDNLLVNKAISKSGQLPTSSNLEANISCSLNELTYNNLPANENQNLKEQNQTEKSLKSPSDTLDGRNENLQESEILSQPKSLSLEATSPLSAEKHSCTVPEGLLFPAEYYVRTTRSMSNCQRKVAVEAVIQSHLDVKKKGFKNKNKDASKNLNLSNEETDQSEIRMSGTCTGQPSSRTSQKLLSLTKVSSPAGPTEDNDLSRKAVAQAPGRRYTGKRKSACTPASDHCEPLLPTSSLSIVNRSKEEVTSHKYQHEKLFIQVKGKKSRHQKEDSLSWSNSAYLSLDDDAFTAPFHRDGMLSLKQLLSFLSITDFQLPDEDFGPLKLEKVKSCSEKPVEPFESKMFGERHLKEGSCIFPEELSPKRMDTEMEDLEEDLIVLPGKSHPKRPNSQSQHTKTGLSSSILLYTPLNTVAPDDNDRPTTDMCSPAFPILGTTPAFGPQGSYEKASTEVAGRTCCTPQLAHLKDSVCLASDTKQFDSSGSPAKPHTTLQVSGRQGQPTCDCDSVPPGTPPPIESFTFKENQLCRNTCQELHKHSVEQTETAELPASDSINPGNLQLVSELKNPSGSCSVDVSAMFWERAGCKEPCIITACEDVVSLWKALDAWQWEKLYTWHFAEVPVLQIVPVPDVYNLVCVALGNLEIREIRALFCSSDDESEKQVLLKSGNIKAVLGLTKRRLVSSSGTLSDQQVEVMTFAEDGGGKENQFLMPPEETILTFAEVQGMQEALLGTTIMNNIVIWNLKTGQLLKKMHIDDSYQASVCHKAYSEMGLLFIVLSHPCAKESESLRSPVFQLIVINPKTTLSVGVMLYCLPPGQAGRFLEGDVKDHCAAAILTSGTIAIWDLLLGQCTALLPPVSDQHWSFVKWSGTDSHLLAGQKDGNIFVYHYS

B1: 60 nt ssDNA (ssDNA)
DNA: GGGTGAACCTGCAGGTGGGCAAAGATGTCCTAGCAATGTAATCGTCAAGCTTTATGCCGT
- binding result (PALB2): binds
- binding signal (PALB2Δ1-40): ~5 fold stronger affinity than PALB2
